{
  "source": "patent US20230340152A1",
  "about": "(published 2023)",
  "binders": {"B1": {"name": "MEDI9447 (antibody, human IgG1, lambda, V domains shown)", "VH": "EVQLLESGGGLVQPGGSLRLSCAASGFTFSSYAYSWVRQAPGKGLEWVSAISGSGGRTYYADSVKGRFTISRDNSKNTLYLQMNSLRAEDTAVYYCARLGYGRVDEWGRGTLVTVSS", "VL": "QSVLTQPPSASGTPGQRVTISCSGSLSNIGRNPVNWYQQLPGTAPKLLIYLDNLRLSGVPDRFSGSKSGTSASLAISGLQSEDEADYYCATWDDSHPGWTFGGGTKLTVLG", "notes": "Human IgG1-TM (L234F, L235E, P331S), lambda light chain; also called clone 10.3 antibody; 73combo3"}},
  "key": {"[1]": {"target": "T1, Human CD73 on cells (MDA-MB-231, Jurkat CD73 knock-in, NCI-H322) (human, UniProt P21589 27-549)", "T1 sequence": "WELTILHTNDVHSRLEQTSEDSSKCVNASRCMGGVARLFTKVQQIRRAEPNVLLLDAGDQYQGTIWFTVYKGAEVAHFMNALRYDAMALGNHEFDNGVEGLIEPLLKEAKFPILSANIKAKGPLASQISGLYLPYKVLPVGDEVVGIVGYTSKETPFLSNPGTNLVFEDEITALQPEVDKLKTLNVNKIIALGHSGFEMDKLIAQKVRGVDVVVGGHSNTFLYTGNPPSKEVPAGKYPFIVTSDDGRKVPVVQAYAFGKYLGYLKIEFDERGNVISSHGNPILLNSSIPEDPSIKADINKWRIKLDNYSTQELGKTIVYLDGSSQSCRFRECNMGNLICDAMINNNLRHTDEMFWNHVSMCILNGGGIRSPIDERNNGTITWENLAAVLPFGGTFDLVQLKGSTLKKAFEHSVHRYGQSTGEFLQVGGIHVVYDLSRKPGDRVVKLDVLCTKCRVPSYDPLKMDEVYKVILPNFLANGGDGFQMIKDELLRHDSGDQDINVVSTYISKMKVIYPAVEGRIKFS", "assay": "cell-based or functional assay"}, "[2]": {"target": "T2, Murine CD73 on cells (4T1, Jurkat mCD73 knock-in) (murine, UniProt Q61503 29-551)", "T2 sequence (looked up)": "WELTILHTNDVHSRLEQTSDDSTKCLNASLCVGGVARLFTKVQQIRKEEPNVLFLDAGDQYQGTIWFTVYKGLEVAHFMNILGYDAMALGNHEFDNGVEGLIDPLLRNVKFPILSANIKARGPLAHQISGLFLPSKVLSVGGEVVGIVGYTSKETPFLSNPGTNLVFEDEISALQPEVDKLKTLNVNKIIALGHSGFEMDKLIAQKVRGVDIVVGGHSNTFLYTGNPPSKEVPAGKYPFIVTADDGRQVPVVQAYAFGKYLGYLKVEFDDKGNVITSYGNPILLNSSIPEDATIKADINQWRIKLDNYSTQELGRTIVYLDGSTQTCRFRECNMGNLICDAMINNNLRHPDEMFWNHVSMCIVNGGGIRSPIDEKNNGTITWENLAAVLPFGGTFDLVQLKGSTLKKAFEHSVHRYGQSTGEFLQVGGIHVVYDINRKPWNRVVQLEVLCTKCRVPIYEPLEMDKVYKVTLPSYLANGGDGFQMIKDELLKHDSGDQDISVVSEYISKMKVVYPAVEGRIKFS", "assay": "cell-based or functional assay"}, "[3]": {"target": "T3, CD73 construct with chicken N- and C-terminal domain sequence with human V144 and N185 knocked in (chicken; human)", "T3 chain": "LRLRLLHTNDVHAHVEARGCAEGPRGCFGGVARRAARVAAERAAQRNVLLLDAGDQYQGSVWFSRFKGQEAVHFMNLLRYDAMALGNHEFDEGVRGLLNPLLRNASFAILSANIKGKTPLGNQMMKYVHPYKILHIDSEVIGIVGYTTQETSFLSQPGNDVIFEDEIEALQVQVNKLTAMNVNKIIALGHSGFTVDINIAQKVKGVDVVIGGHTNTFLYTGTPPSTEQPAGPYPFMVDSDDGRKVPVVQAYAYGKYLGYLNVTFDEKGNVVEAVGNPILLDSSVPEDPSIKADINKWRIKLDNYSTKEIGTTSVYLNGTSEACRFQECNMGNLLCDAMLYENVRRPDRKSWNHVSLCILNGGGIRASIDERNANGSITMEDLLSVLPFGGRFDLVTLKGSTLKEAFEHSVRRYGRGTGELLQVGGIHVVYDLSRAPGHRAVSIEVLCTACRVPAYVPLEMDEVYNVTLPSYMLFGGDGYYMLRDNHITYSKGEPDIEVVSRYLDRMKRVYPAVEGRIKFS", "assay": "SPR, MEDI9447 dilutions from 5 nM to 0.3 nM", "description": "FIG. 24C depicts a close-up of the epitope residues located within the N-terminal domain of CD73. The most important residues for binding are shown highlighted and less impactful positions (Y135, K136, and N187) are in pink. The HDX interface is overlaid in blue. FIG. 24D depicts a surface representation showing that the epitope forms a near contiguous binding surface. FIG. 24E depicts a crystal structure of the open conformation of CD73 showing the position of the epitope at the apical, lateral surface of the N-terminal domain. […] In all crystal structures, the CD73 N-terminal domain, linker region, and C-terminal domain are depicted in yellow, orange, and blue, respectively.\nBinding of MEDI9447 to wild-type and mutant CD73 proteins was measured by surface plasmon resonance (SPR) using a ProteOn instrument (BioRad). CD73 crude cell supernatant protein samples were diluted to 3 µg/ml in PBS, 0.005% Tween-20, pH 7.4 (BioRad) and immobilized to ~400 RU on a HTG tris-NTA sensor chip (BioRad) pre-activated with 10 mM NiSO₄, 10 mM MES, pH 6.0 (BioRad). […] Sensorgrams were recorded by flowing two-fold dilutions of MEDI9447 prepared in PBS, 0.005% Tween-20, pH 7.4, ranging from 5 nM to 0.31 nM. […] Antibody binding was measured at a flow rate of 100 µL/min with a 3 min association phase and 20 min dissociation phase. […] Binding kinetics were analyzed using the ProteOn data analysis software. […]"}},
  "data": [
    {"binder": "B1", "values": [
      {"measurement": "FabZAP internalization, EC50, MDA-MB-231", "setting": "[1]", "result": 0.0035, "unit": "nM"},
      {"measurement": "FabZAP internalization, maximum toxicity, MDA-MB-231", "setting": "[1]", "result": 97, "unit": "%"},
      {"measurement": "FabZAP internalization, EC50, 4T1", "setting": "[2]", "result": 0.0185, "unit": "nM"},
      {"measurement": "FabZAP internalization, maximum toxicity, 4T1", "setting": "[2]", "result": 97, "unit": "%"},
      {"measurement": "fold of the KD for wild-type CD73", "setting": "[3]", "result": "< 20", "unit": "fold"}
    ]}
  ]
}
